Where “and” joins values, the source holds several entries; their conditions need not be identical. Identical values can stand only once. Bridge positions count the residues as written; N and C are the ends. Square brackets hold non-standard residues; d marks the D form. Ends that are not written are not given here. Nle = CCCC[C@H](N)C(=O)O; Abu = CC[C@H](N)C(=O)O
Experiments:
[1] = biological target: T1, human melanocortin-4 (MC-4) receptors (Homo sapiens, UniProt P32245); type: binding; settings: HEK 293 cell membranes; about […] 125I-NDP-α-MSH; 180 minutes at 25 C; read-out: hMC4 IC50 (nM) 125I NDP-MSH
T1 construct: expressed in transfected cells; membrane fraction used

[2] = type: binding, human; settings: Table II; HEK 293 cell membranes; 125I-AGRP 1.10 nM; read-out: hMC3 IC50 (nM) 125I-AGRP
[3] = biological target: T2, human melanocortin-3 (MC-3) receptors (Homo sapiens, UniProt P41968); experiment: Melanocortin receptor binding assay, 125I-NDP-alpha-MSH competition, MC-3; settings: HEK 293 cell membranes; about […] 125I-NDP-α-MSH; 180 minutes at 25 C; read-out: hMC3 IC50 (nM) 125I NDP-MSH
T2 construct: expressed in transfected cells; membrane fraction used

[4] = biological target: T2, human melanocortin-3 (MC-3) receptors; experiment: Melanocortin receptor binding assay, 125I-AGRP competition, MC-3; settings: Table II; HEK 293 cell membranes; 125I-AGRP 1.10 nM; read-out: hMC3 IC50 (nM) 125I-AGRP
[5] = biological target: T3, human melanocortin-3 (MC-3) receptor (human, UniProt P41968); experiment: displacement of 125I-AGRP, membranes of HEK 293 cells with hMC3 (value column 4)
[6] = biological target: T3, human melanocortin-3 (MC-3) receptor; experiment: displacement of 125I-NDP-alpha-MSH, membranes of HEK 293 cells with hMC3 (value column 3)
[7] = biological target: T4, human melanocortin-4 (MC-4) receptor (human, UniProt P32245); experiment: displacement of 125I-NDP-alpha-MSH, membranes of HEK 293 cells with hMC4 (value column 1)
[8] = biological target: T4, human melanocortin-4 (MC-4) receptor; experiment: displacement of 125I-AGRP, membranes of HEK 293 cells with hMC4 (value column 2; its head prints hMC3)

T2 sequence (P41968 whole entry): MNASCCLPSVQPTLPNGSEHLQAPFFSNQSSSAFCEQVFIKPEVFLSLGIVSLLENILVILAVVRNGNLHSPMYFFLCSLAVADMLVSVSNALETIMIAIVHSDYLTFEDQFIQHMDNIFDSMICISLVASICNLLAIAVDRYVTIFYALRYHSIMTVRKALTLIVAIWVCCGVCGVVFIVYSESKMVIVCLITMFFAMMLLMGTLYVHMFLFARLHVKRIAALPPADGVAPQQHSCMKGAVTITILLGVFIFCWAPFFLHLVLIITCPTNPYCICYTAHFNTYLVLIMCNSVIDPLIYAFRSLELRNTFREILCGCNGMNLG
T1 sequence (P32245 whole entry): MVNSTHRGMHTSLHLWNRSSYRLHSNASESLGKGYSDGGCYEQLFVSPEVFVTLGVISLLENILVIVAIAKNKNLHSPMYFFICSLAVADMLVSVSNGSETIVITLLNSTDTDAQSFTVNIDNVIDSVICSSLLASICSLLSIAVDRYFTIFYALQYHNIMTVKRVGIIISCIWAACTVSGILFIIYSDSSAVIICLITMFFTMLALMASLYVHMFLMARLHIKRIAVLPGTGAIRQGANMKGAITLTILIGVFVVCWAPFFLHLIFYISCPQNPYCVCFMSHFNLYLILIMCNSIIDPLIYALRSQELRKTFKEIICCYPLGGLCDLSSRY
T4 sequence (P32245 whole entry): as above

IC50 [5] | IC50 [6] | IC50 [7] | IC50 [8] | Molecule | IC50 [1] | IC50 [2] | IC50 [3] | IC50 [4]
– | – | – | – | AC[Abu]DP[Abu]AS[Abu]QCRFFRSACSCRVL (cysteine pairing not given here) [SEQ ID NO:16] | > 1000 nM | 280 nM | > 1000 nM | > 1000 nM
– | – | – | – | RNSCKPPAPAC[Abu]DP[Abu]ASCQCRFFRSACSCRVL (cysteine pairing not given here) [SEQ ID NO:13] | 1000 nM | 60 nM | > 1000 nM | > 1000 nM
– | – | – | – | HESCLGQQVP[Abu][Abu]DP[Abu]ATCYCRFFNAFCY[Abu]RKL (cysteine pairing not given here) [SEQ ID NO:3] | 900 nM | 160 nM | > 1000 nM | > 1000 nM
– | – | – | – | HESCLGQQVPC[Abu]DP[Abu]ATCYCRFFNAFCYCRKL (cysteine pairing not given here) [SEQ ID NO:2] | 200 nM | – | > 1000 nM | 850 nM
– | – | – | – | C[Abu]DPCAT[Abu]Y[Abu]RFFNAF[Abu]YCRKLGTAMNPCSRT (cysteine pairing not given here) [SEQ ID NO:11] | > 1000 nM | 800 nM | > 1000 nM | > 1000 nM
– | – | – | – | C[Abu]DPCAS[Abu]Q[Abu]RFFRSA[Abu]SCRVLSLNC (cysteine pairing not given here) [SEQ ID NO:18] | > 1000 nM | > 1000 nM | > 1000 nM | > 1000 nM
– | – | – | – | RNS[Abu]KPPAPAC[Abu]DP[Abu]AS[Abu]QCRFFRSACSCRVL (cysteine pairing not given here) [SEQ ID NO:15] | 800 nM | 45 nM | > 1000 nM | > 1000 nM
– | – | – | – | [Abu][Abu]DPCAT[Abu]YCRFFNAFCY[Abu]RKLGTAMNPCSRT (cysteine pairing not given here) [SEQ ID NO:9] | 600 nM | 73 nM | > 1000 nM | 700 nM
– | – | – | – | His-Glu-Ser-Abu-Leu-Gly-Gln-Gln-Val-Pro-Cys-Abu-Asp-Pro-Abu-Ala-Thr-Abu-Tyr-Cys-Arg-Phe-Phe-Asn-Ala-Phe-Cys-Tyr-Cys-Arg-Lys-Leu [SEQ ID NO:4] | 100 nM | – | 850 nM | 90 nM
– | – | – | – | C[Abu]DPCAT[Abu]YCRFFNAFCYCRKLGTAMNPCSRT (cysteine pairing not given here) [SEQ ID NO:8] | – | – | – | 400 nM
– | – | – | – | [Abu][Abu]DPCAS[Abu]QCRFFRSACS[Abu]RVLSLNC (cysteine pairing not given here) [SEQ ID NO:17] | > 1000 nM | > 1000 nM | > 1000 nM | > 1000 nM
– | – | – | – | RNSCKPPAPA[Abu][Abu]DP[Abu]ASCQCRFFRSACS[Abu]RVL (cysteine pairing not given here) [SEQ ID NO:14] | > 1000 nM | 900 nM | > 1000 nM | > 1000 nM
– | – | – | – | Cys-Abu-Asp-Pro-Abu-Ala-Thr-Abu-Tyr-Cys-Arg-Phe-Phe-Asn-Ala-Phe-Cys-Tyr-Cys-Arg-Lys-Leu-Gly-Thr-Ala-Met-Asn-Pro-Abu-Ser-Arg-Thr [SEQ ID NO:10] | 102 nM | 15 nM | 500 nM | 147 nM
– | – | – | – | HESCLGQQVPC[Abu]DP[Abu]ATCY[Abu]RFFNAF[Abu]YCRKL (cysteine pairing not given here) [SEQ ID NO:5] | > 1000 nM | 377 nM | > 1000 nM | > 1000 nM
> 1000 nM | > 1000 nM | > 1000 nM | – | CRFFNAFC (disulfide 1-8 (inferred)) [peptide of SEQ ID NO:6] | – | – | – | –
– | 0.9 nM and 0.7 nM | 8 nM | – | Ac-[Nle]H[dF]RWK [NDP-alpha-MSH] | – | – | – | –

IC50 [5] | IC50 [6] | IC50 [7] | IC50 [8] | Molecule | IC50 [1] | IC50 [2] | IC50 [3] | IC50 [4]
> 1000 nM | > 1000 nM | > 1000 nM | 900 nM | RNSCKPPAPA[Abu][Abu]DP[Abu]ASCQCRFFRSACS[Abu]RVL (disulfide (positions not given here); also: oxidised to disulfides, pairs not given here) [peptide of SEQ ID NO:14] | – | – | – | –
> 1000 nM | > 1000 nM | > 1000 nM | > 1000 nM | [Abu][Abu]DPCAS[Abu]QCRFFRSACS[Abu]RVLSLNC (disulfide (positions not given here); also: oxidised to disulfides, pairs not given here) [peptide of SEQ ID NO:17] | – | – | – | –
> 1000 nM | > 1000 nM | > 1000 nM | – | CRFFGSAC (disulfide 1-8 (inferred)) [peptide of SEQ ID NO:7] | – | – | – | –
700 nM | > 1000 nM | 600 nM | 73 nM | [Abu][Abu]DPCAT[Abu]YCRFFNAFCY[Abu]RKLGTAMNPCSRT (disulfide (positions not given here); not fully specified (bridges); also: disulfide pairing not given here) [peptide of SEQ ID NO:9] | – | – | – | –
– | 2 nM | – | – | MRCVRLHESCLGQQVPCCDPCATCYCRFFNAFCYCRKLGTAMNPCSRT [Md65-AGRP] | – | – | – | –
90 nM | 850 nM | 100 nM | – | HES[Abu]LGQQVPC[Abu]DP[Abu]AT[Abu]YCRFFNAFCYCRKL (disulfide (positions not given here)) [peptide of SEQ ID NO:4] | – | – | – | –
> 1000 nM | > 1000 nM | > 1000 nM | 377 nM | HESCLGQQVPC[Abu]DP[Abu]ATCY[Abu]RFFNAF[Abu]YCRKL (disulfide (positions not given here)) [peptide of SEQ ID NO:5] | – | – | – | –
> 1000 nM | > 1000 nM | 1000 nM | 60 nM | RNSCKPPAPAC[Abu]DP[Abu]ASCQCRFFRSACSCRVL (disulfide (positions not given here); not fully specified (bridges); printed as Arg-Asn-Ser-Cys-Lys-Pro-Pro-Ala-Pro-Ala-Cys-Abu-Asp-Pro-Abu-Ala-Ser-Cys-Gln-Cys-Arg-Phe-Phe-Arg-Ser-Ala-Cys-Ser-Cys-Arg-Val-Leu; also: three disulfides, pairing not given here) [peptide of SEQ ID NO:13] | – | – | – | –
850 nM | > 1000 nM | 200 nM | 50 nM | HESCLGQQVPC[Abu]DP[Abu]ATCYCRFFNAFCYCRKL (disulfide (positions not given here)) [peptide of SEQ ID NO:2] | – | – | – | –
0.7 nM | 20 nM and 10 nM | – | – | Mkd5-AGRP (ligand) APMEGIRRPDQALLPELPGLGLRAPLKKTTAEQAEEDLLQEAQALAEVLDLQDREPRSSRRCVRLHESCLGQQVPCCDPCATCYCRFFNAFCYCRKLGTAMNPCSRT | – | – | – | –
> 1000 nM | > 1000 nM | 800 nM | 45 nM | RNS[Abu]KPPAPAC[Abu]DP[Abu]AS[Abu]QCRFFRSACSCRVL (disulfide (positions not given here)) [peptide of SEQ ID NO:15] | – | – | – | –
> 1000 nM | > 1000 nM | 900 nM | 160 nM | HESCLGQQVP[Abu][Abu]DP[Abu]ATCYCRFFNAFCY[Abu]RKL (disulfide (positions not given here)) [peptide of SEQ ID NO:3] | – | – | – | –
> 1000 nM | > 1000 nM | > 1000 nM | 800 nM | C[Abu]DPCAT[Abu]Y[Abu]RFFNAF[Abu]YCRKLGTAMNPCSRT (disulfide (positions not given here); also: oxidised to disulfides, pairs not given here) [peptide of SEQ ID NO:11] | – | – | – | –
> 1000 nM | > 1000 nM | > 1000 nM | > 1000 nM | C[Abu]DPCAS[Abu]Q[Abu]RFFRSA[Abu]SCRVLSLNC (disulfide (positions not given here); also: oxidised to disulfides, pairs not given here) [peptide of SEQ ID NO:18] | – | – | – | –
> 1000 nM | > 1000 nM | > 1000 nM | 280 nM | AC[Abu]DP[Abu]AS[Abu]QCRFFRSACSCRVL (disulfide (positions not given here)) [peptide of SEQ ID NO:16] | – | – | – | –

Reference: patent publication US6303749A, “Agouti and agouti-related peptide analogs” (Amgen Inc., priority 1999, dated 2001)
